Test results taken from the supplement of paper PMC10567573.

B1: MFF (parent)
chain: MAEISRIQYEMEYTEGISQRMRVP

Variants of: B1
Test: protein stability index of a GFP-peptide fusion (GPS, HEK-293T) (PSI 1-6); higher = more stable
Conditions: c terminus: a fixed tail appended
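Note: lentivirally expressed fusions sorted by FACS into six bins by GFP to DsRed ratio, PSI derived from sequencing read proportions per bin multiplied by bin number.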

| Variant | protein stability index |
| --- | --- |
| MAEISRIQYEMEYTEGISQFMRVP [R20F] | 2.08 |
| MAEISRIQYEMEYTEGISQRWRVP [M21W] | 1.91 |
| MAEISRIQYEMEYTEGISQRIRVP [M21I] | 2.42 |
| MAEISRIQYEMEYTEGISQRVRVP [M21V] | 2.79 |
| MAEISRIQYEMEYTEGISQRRRVP [M21R] | 3.9 |
| MAEISRIQYEMEYTEGISQRDRVP [M21D] | 3.41 |
| MAEISRIQYEMEYTEGISQRTRVP [M21T] | 3.33 |
| MAEISRIQYEMEYTEGISQRERVP [M21E] | 3.58 |
| MAEISRIQYEMEYTEGISQRHRVP [M21H] | 3.6 |
| MAEISRIQYEMEYTEGISQRQRVP [M21Q] | 3.12 |
| MAEISRIQYEMEYTEGISQRSRVP [M21S] | 3.31 |
| MAEISRIQYEMEYTEGISQRYRVP [M21Y] | 2.9 |
| MAEISRIQYEMEYTEGISQRCRVP [M21C] | 2.32 |
| MAEISRIQYEMEYTEGISQRFRVP [M21F] | 2.38 |
| MAEISRIQYEMEYTEGISQRGRVP [M21G] | 3.62 |
| MAEISRIQYEMEYTEGISQRKRVP [M21K] | 3.73 |
| MAEISRIQYEMEYTEGISQRARVP [M21A] | 3.17 |
| MAEISRIQYEMEYTEGISQRPRVP [M21P] | 3.59 |
| MAEISRIQYEMEYTEGISQRNRVP [M21N] | 3.32 |
| MAEISRIQYEMEYTEGISQRLRVP [M21L] | 2.26 |
| MAEISRIQYEMEYTEGISQRMRVA [P24A] | 2.16 |
| MAEISRIQYEMEYTEGISQRMGVP [R22G] | 2.46 |
| MAEISRIQYEMEYTEGISQRMFVP [R22F] | 1.69 |
| MAEISRIQYEMEYTEGISQRMNVP [R22N] | 2.36 |

| Variant | protein stability index |
| --- | --- |
| MAEISRIQYEMEYTEGISQRMLVP [R22L] | 2.48 |
| MAEISRIQYEMEYTEGISQRMDVP [R22D] | 2.6 |
| MAEISRIQYEMEYTEGISQRMEVP [R22E] | 2.86 |
| MAEISRIQYEMEYTEGISQRMQVP [R22Q] | 2.43 |
| MAEISRIQYEMEYTEGISQRMCVP [R22C] | 2.4 |
| MAEISRIQYEMEYTEGISQRMAVP [R22A] | 2.63 |
| MAEISRIQYEMEYTEGISQRMIVP [R22I] | 1.84 |
| MAEISRIQYEMEYTEGISQRMPVP [R22P] | 2.56 |
| MAEISRIQYEMEYTEGISQRMYVP [R22Y] | 2.23 |
| MAEISRIQYEMEYTEGISQRMVVP [R22V] | 2.9 |
| MAEISRIQYEMEYTEGISQRMWVP [R22W] | 2.01 |
| MAEISRIQYEMEYTEGISQRMSVP [R22S] | 2.44 |
| MAEISRIQYEMEYTEGISQRMHVP [R22H] | 2.46 |
| MAEISRIQYEMEYTEGISQRMKVP [R22K] | 2.8 |
| MAEISRIQYEMEYTEGISQRMMVP [R22M] | 2.38 |
| MAEISRIQYEMEYTEGISQRMTVP [R22T] | 2.98 |
| MAEISRIQYEMEYHEGISQRMRVP [T14H] | 2.5 |
| MAEISRIQYEMEYIEGISQRMRVP [T14I] | 1.86 |
| MAEISRIQYEMEYVEGISQRMRVP [T14V] | 2.56 |
| MAEISRIQYEMEYNEGISQRMRVP [T14N] | 3.15 |
| MAEISRIQYEMEYEEGISQRMRVP [T14E] | 3.22 |
| MAEISRIQYEMEYSEGISQRMRVP [T14S] | 2.71 |
| MAEISRIQYEMEYPEGISQRMRVP [T14P] | 2.55 |
| MAEISRIQYEMEYQEGISQRMRVP [T14Q] | 3.08 |

| Variant | protein stability index |
| --- | --- |
| MAEISRIQYEMEYREGISQRMRVP [T14R] | 2.35 |
| MAEISRIQYEMEYKEGISQRMRVP [T14K] | 3.28 |
| MAEISRIQYEMEYLEGISQRMRVP [T14L] | 2.07 |
| MAEISRIQYEMEYYEGISQRMRVP [T14Y] | 2.04 |
| MAEISRIQYEMEYGEGISQRMRVP [T14G] | 2.75 |
| MAEISRIQYEMEYFEGISQRMRVP [T14F] | 1.65 |
| MAEISRIQYEMEYMEGISQRMRVP [T14M] | 2.2 |
| MAEISRIQYEMEYWEGISQRMRVP [T14W] | 1.97 |
| MAEISRIQYEMEYTECISQRMRVP [G16C] | 2.02 |
| MAEISRIQYEMEYTEDISQRMRVP [G16D] | 3.02 |
| MAEISRIQYEMEYTEPISQRMRVP [G16P] | 3.13 |
| MAEISRIQYEMEYTESISQRMRVP [G16S] | 2.2 |
| MAEISRIQYEMEYTEFISQRMRVP [G16F] | 1.82 |
| MAEISRIQYEMEYTEKISQRMRVP [G16K] | 2.71 |
| MAEISRIQYEMEYTEQISQRMRVP [G16Q] | 2.29 |
| MAEISRIQYEMEYTERISQRMRVP [G16R] | 1.9 |
| MAEISRIQYEMEYTEHISQRMRVP [G16H] | 2.02 |
| MAEISRIQYEMEYTEEISQRMRVP [G16E] | 3.12 |
| MAEISRIQYEMEYTEIISQRMRVP [G16I] | 1.62 |
| MAEISRIQYEMEYTEAISQRMRVP [G16A] | 2.69 |
| MAEISRIQYEMEYTENISQRMRVP [G16N] | 2.72 |
| MAEISRIQYEMEYTEWISQRMRVP [G16W] | 2.04 |
| MAEISRIQYEMEYTEVISQRMRVP [G16V] | 2.07 |
| MAEISRIQYEMEYTEYISQRMRVP [G16Y] | 1.48 |

| Variant | protein stability index |
| --- | --- |
| MAEISRIQYEMEYTETISQRMRVP [G16T] | 2.22 |
| MAEISRIQYEMEYTELISQRMRVP [G16L] | 1.9 |
| MAEISRIQYEMEYTEMISQRMRVP [G16M] | 1.88 |
| MAEISRIQYEMEYTEGLSQRMRVP [I17L] | 2.52 |
| MAEISRIQYEMEYTEGVSQRMRVP [I17V] | 2.96 |
| MAEISRIQYEMEYTEGGSQRMRVP [I17G] | 3.55 |
| MAEISRIQYEMEYTEGHSQRMRVP [I17H] | 3.4 |
| MAEISRIQYEMEYTEGWSQRMRVP [I17W] | 2.25 |
| MAEISRIQYEMEYTEGNSQRMRVP [I17N] | 3.3 |
| MAEISRIQYEMEYTEGASQRMRVP [I17A] | 3.03 |
| MAEISRIQYEMEYTEGCSQRMRVP [I17C] | 2.92 |
| MAEISRIQYEMEYTEGDSQRMRVP [I17D] | 3.95 |
| MAEISRIQYEMEYTEGTSQRMRVP [I17T] | 3.4 |
| MAEISRIQYEMEYTEGMSQRMRVP [I17M] | 2.35 |
| MAEISRIQYEMEYTEGFSQRMRVP [I17F] | 1.99 |
| MAEISRIQYEMEYTEGPSQRMRVP [I17P] | 3.57 |
| MAEISRIQYEMEYTEGSSQRMRVP [I17S] | 3.52 |
| MAEISRIQYEMEYTEGYSQRMRVP [I17Y] | 2.62 |
| MAEISRIQYEMEYTEGESQRMRVP [I17E] | 3.36 |
| MAEISRIQYEMEYTEGRSQRMRVP [I17R] | 3.67 |
| MAEISRIQYEMEYTEGKSQRMRVP [I17K] | 3.18 |
| MAEISRIQYEMEYTEGQSQRMRVP [I17Q] | 3.76 |
